Values quoted from earlier work in publication PMC10769511.

Target: histone H3K4me3 peptide (Homo sapiens) (UniProt P68431)

- Kd: 160 nM
Substance: PHF2 PHD-Jumonji (from UniProt O75151)
